This is an account of results in patent US20210171647A1 (WUXI BIOLOGICS SHANGHAI, published 2021).

Common to all, as to assay: ELISA, antibody coated, OX40-ECD.His mutant supernatant; relative to silent alanine substitutions;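 further: captured OX40 mutant protein detected with HRP-labelled anti-His antibody, absorbance read-out, scaled to the mean signal of control mutants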
Assay [1] concerns the target T1, human OX40-ECD.His V75A (human, UniProt P43489 29-214).
T1 construct: extracellular domain; not shown: C-terminal His-tag
T1 sequence (looked up): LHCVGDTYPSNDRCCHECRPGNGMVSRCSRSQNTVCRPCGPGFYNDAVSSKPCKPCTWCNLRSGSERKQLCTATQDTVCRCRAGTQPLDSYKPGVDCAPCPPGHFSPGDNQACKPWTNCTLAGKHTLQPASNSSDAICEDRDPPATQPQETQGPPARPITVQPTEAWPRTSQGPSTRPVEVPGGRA

Assay [2] concerns the target T2, human OX40-ECD.His L29A (human, UniProt P43489 29-214).
T2 construct: extracellular domain; not shown: C-terminal His-tag
T2 sequence (looked up): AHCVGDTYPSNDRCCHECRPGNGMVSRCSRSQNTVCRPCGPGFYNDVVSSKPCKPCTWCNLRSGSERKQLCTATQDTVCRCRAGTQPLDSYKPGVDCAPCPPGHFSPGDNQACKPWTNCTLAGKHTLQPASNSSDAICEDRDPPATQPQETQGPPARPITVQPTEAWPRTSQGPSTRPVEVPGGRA

For assay [3], the target named is T3, human OX40-ECD.His F133A (human, UniProt P43489 29-214).
T3 construct: extracellular domain; not shown: C-terminal His-tag
T3 sequence (looked up): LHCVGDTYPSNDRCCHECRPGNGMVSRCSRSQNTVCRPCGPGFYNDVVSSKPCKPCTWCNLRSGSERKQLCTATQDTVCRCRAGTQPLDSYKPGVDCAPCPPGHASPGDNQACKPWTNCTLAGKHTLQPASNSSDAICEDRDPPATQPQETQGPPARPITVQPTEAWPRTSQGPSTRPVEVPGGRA

In assay [4] the target is T4, human OX40-ECD.His S54A (human, UniProt P43489 29-214).
T4 construct: extracellular domain; not shown: C-terminal His-tag
T4 sequence (looked up): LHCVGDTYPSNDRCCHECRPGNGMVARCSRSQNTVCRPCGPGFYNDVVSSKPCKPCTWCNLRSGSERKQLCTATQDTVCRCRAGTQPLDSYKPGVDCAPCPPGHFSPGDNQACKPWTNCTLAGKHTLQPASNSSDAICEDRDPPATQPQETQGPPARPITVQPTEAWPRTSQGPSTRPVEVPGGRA

For assay [5], the target named is T5, human OX40-ECD.His P69A (human, UniProt P43489 29-214).
T5 construct: extracellular domain; not shown: C-terminal His-tag
T5 sequence (looked up): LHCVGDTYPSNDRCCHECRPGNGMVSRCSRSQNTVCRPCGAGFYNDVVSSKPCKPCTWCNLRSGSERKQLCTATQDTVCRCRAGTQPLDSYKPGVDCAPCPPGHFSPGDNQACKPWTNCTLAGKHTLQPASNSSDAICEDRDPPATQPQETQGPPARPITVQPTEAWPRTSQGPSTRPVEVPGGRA

The target in assay [6] is T6, human OX40-ECD.His S161A (human, UniProt P43489 29-214).
T6 construct: extracellular domain; not shown: C-terminal His-tag
T6 sequence (looked up): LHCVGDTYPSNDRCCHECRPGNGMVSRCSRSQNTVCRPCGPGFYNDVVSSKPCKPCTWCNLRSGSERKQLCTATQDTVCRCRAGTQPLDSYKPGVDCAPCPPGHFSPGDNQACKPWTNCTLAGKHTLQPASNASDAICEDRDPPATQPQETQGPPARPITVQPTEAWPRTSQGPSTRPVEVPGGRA

The target of assay [7] is T7, human OX40-ECD.His P157A (human, UniProt P43489 29-214).
T7 construct: extracellular domain; not shown: C-terminal His-tag
T7 sequence (looked up): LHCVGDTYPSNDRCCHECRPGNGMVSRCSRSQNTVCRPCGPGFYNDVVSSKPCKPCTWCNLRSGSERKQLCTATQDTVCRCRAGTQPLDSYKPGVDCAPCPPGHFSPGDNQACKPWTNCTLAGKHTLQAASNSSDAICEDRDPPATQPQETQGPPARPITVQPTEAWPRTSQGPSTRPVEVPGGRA

In assay [8] the target is T8, human OX40-ECD.His P80A (human, UniProt P43489 29-214).
T8 construct: extracellular domain; not shown: C-terminal His-tag
T8 sequence (looked up): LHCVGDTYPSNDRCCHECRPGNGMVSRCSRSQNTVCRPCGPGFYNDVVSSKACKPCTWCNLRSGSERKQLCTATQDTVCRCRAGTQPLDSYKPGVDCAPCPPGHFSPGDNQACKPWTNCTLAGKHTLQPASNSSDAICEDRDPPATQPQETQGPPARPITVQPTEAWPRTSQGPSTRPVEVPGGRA

For assay [9], the target named is T9, human OX40-ECD.His G68A (human, UniProt P43489 29-214).
T9 construct: extracellular domain; not shown: C-terminal His-tag
T9 sequence (looked up): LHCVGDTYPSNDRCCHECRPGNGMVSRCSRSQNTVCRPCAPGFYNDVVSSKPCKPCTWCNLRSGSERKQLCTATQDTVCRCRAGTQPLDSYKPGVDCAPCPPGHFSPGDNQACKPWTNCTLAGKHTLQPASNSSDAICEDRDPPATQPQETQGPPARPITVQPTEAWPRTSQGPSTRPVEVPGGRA

Assay [10] concerns the target T10, human OX40-ECD.His R169A (human, UniProt P43489 29-214).
T10 construct: extracellular domain; not shown: C-terminal His-tag
T10 sequence (looked up): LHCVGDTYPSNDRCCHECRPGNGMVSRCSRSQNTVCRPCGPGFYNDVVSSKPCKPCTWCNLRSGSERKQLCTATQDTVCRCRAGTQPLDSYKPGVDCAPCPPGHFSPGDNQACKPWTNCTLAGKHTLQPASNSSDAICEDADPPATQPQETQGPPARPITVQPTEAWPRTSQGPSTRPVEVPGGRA

B1: 1.134.9-u1-IgG1L (antibody, V domains shown)
VH: QVQLQESGPGLVKPSGTLSLTCAVSGGSISSYNWWSWVRQPPGKGLEWIGEIYHGGNTNYNPSLKSRVTMSVDNSKNQFSLKLSSVTAADTAVYYCARAPGDWGGSPYFDFWGQGTLVTVSS
VL: SSELTQDPAVSVALGQTVRITCQGDNLRTYYASWYQQKPGQAPILLIYGRNKRPSGIPDRFSGSSSGNTASLTITGAQAEDEAAYYCNSRDSSGNPVVFGGGTKLTVL
notes: fully human IgG1, lambda
In the case of B1, the “Fold Change” value in assay [1] is 0.994; in [2], 1; in [3], 0.627; in [4], 0.993; in [5] it was 0.987; in assay [6], 0.945. Also, the “Fold Change” value turned out to be 0.992 in assay [7], 0.944 in assay [8], 0.998 in assay [9] and 1 in [10].
